What was measured:
[1] = target: T1, recombinant human interleukin-6 (human, UniProt P05231 30-212); experiment: Luminex-based assay of IL-6 binding to IL-6 receptor
T1 construct: Recombinant human IL-6 came from several suppliers; also called IL-6; rhIL-6

[2] = target: T1, recombinant human interleukin-6; experiment: solid-phase ELISA on coated rIL-6 and solid-phase RIA with 125I-rIL-6, hybridoma supernatant
[3] = target: T1, recombinant human interleukin-6; experiment: cell-based or functional assay

T1 sequence (P05231 30-212 limits assumed): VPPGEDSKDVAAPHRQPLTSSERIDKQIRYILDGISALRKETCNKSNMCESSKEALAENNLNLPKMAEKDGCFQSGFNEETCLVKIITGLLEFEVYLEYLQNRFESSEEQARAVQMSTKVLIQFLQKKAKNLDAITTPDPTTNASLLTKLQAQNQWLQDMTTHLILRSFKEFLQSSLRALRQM

percent inhibition of IL-6 binding to IL-6 receptor [1]: 100%
binding result [2]: binds
IL−6依存性7TD1細胞増殖バイオアッセイ [3]: 100%
B1: mouse anti-IL-6 monoclonal antibody CLB-8 (antibody, V domains shown)
VH: EVQLVESGGKLLKPGGSLKLSCAASGFTFSSFAMSWFRQSPEKRLEWVAEISSGGSYTYYPDTVTGRFTISRDNAKNTLYLEMSSLRSEDTAMYYCARGLWGYYALDYWGQGTSVTVSS
VL: QIVLIQSPAIMSASPGEKVTMTCSASSSVSYMYWYQQKPGSSPRLLIYDTSNLASGVPVRFSGSGSGTSYSLTISRMEAEDAATYYCQQWSGYPYTFGGGTKLEIK
notes: also called CLB-IL6-8; CLB.IL-6/8
IL−6誘発性細胞増殖の阻害 (7TD1 cells, ATP luminescence), EC 50 [3]: 7.2 ng/mL

From patent JP2014195458A (dated 2014)
